Reference: patent US20240327535A1 (EISAI R AND D MANAGEMENT, published 2024)
Residue numbers refer to the chain shown, from its start.

T1: extracellular domain of human BCMA (human, UniProt Q02223 1-54)
T1 construct: amine-linked to Octet AR2G tips; also called hsBCMA; BCMA (human)
T1 sequence: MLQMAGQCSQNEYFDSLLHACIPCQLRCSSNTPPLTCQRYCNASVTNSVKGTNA

T2: human BCMA on NCI-H929, OPM2 and Raji cells (human, UniProt Q02223 1-184)
T2 construct: endogenous BCMA of human cell lines; also called TNFRSF17; CD269
T2 chain: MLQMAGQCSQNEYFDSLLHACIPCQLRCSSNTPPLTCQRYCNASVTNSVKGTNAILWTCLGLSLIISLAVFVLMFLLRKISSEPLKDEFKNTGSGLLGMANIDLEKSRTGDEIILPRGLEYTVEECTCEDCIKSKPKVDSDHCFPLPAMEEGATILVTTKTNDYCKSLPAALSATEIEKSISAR

B1: AB200-(2Vk35)_R2-VH-v76 (Fab, V domains shown)
VH: QVQLVQSGAEVKKPGSSVKVSCKASGGTFSNYWIHWVRQAPGQGLEWMGATYRIQSDTYYNEKFKSRVTITADKSTSTAYMELSSLRSEDTAVYYCARGAIYHGFDVIDNWGQGTLVTVSS
VL: DIQMTQSPSSLSASVGDRVTITCRASQSISSYINWYQQKPGKAPKLLIYATSNLQSGVPSRFSGSGSGTDFTLTISSLQPEDFATYYCQQYRRIPWTFGQGTKLEIKR
B2: AB200-(2Vk35)_R2-VH-v49 (Fab, V domains shown)
VH: B1 VH with F29Y, D57T, E62Q, F105Y, D109E
VL: B1 VL
B3: AB200-(2Vk35)_R2-VH-v36 (Fab, V domains shown)
VH: B1 VH with I54S, Q55H, N61A, Y102F, F105Y
VL: B1 VL
B4: AB200-(2Vk35)_R2-VH-v38 (Fab, V domains shown)
VH: B1 VH with I54S
VL: B1 VL
B5: AB200-(2Vk35)_R2-VH-v52 (Fab, V domains shown)
VH: B1 VH with T28S, N61A, E62Q, Y102F, F105Y
VL: B1 VL
B6: AB200-(2Vk35)_R2-VH-v62 (Fab, V domains shown)
VH: B1 VH with A50G, Q55H, F105Y, D109E
VL: B1 VL
B7: AB200-(2Vk35)_R2-VH-v48 (Fab, V domains shown)
VH: B1 VH with F29Y, A50G, Q55H, D57T, E62Q
VL: B1 VL
B8: AB200-(2Vk35)_R2-VH-v26 (Fab, V domains shown)
VH: B1 VH with I54S, Q55H, D57T, N61A, E62Q, Y102F, F105Y
VL: B1 VL
B9: AB200-(2Vk35)_R2-VH-v55 (Fab, V domains shown)
VH: B1 VH with T28S, Q55H, D57T, E62Q, F64Y, I101V, F105Y
VL: B1 VL
B10: AB200-(2Vk35)_R2-VH-v32 (Fab, V domains shown)
VH: B1 VH with I54S, Q55H, Y59N, E62Q, F64Y, Y102F, F105Y
VL: B1 VL
B11: AB200-(2Vk35)_R2-VH-v63 (Fab, V domains shown)
VH: B1 VH with Q55H, D57T, Y59N, E62Q, K74E, I101V, F105Y
VL: B1 VL
B12: AB200-(2Vk35)_R2-VH-v69 (Fab, V domains shown)
VH: B1 VH with Y59N, E62Q, I101V, F105Y
VL: B1 VL
B13: AB200-(2Vk35)_R2-VH-v56 (Fab, V domains shown)
VH: B1 VH with T28S, Q55H, N61A, E62Q, F64Y, Y102F, F105Y
VL: B1 VL
B14: AB200-(2Vk35)_R2-VH-v46 (Fab, V domains shown)
VH: B1 VH with F29Y, Y59N, E62Q, F105Y, D109E
VL: B1 VL
B15: AB212-ADL1-D2-02 (antibody, human IgG1, kappa, V domains shown)
VH: B1 VH with A50G, I54S, Q55H, Y59N, E62Q, F105Y, D109E
VL: B1 VL with I33L, S56I, Y91F, I94L
modifications: ADL1-D2 linker-payload on cysteine residues of the antibody, DAR 5.17
B16: AB200-ADL1-D12-05 (antibody, human IgG1, kappa, V domains shown)
VH: B1 VH with I34M, I54G, Q55H, E62Q, S66G, H103D, F105Y, I108L
VL: B1 VL with R24S, S28D, S31N, I33L, A50Y, Q55H, R93K, I94L
modifications: ADL1-D12 linker-payload on cysteine residues of the antibody, DAR 4.24
notes: antibody-drug conjugate
B17: AB200-ADL1-D2-02 (antibody, human IgG1, kappa, V domains shown)
VH: B1 VH with I34M, I54G, Q55H, E62Q, S66G, H103D, F105Y, I108L
VL: B1 VL with R24S, S28D, S31N, I33L, A50Y, Q55H, R93K, I94L
modifications: ADL1-D2 linker-payload on cysteine residues of the antibody, DAR 3.92
notes: antibody-drug conjugate; also called AB200 ADC incorporating the ADL1-D2 linker-payload
B18: AB213-ADL1-D2-02 (antibody, human IgG1, kappa, V domains shown)
VH: B1 VH with S30T, A50G, I54S, Q55H, D57T, E62Q, I101V, F105Y
VL: B1 VL with I33L, S56I, Y91F, I94L
modifications: ADL1-D2 linker-payload on cysteine residues of the antibody, DAR 4.18
B19: AB218-ADL1-D2-02 (antibody, human IgG1, kappa, V domains shown)
VH: B1 VH with I54S, D57T, E62Q, I101V, F105Y
VL: B1 VL with I33L, S56I, Y91F, I94L
modifications: ADL1-D2 linker-payload on cysteine residues of the antibody, DAR 3.77
B20: AB200-(2Vk44)_R2-VH-v58 (Fab, V domains shown)
VH: B1 VH with A50G, Q55H, Y59N, E62Q
VL: B1 VL with S56I, I94L, T97S
B21: AB200-(2Vk44)_R2-VH-v28 (Fab, V domains shown)
VH: B1 VH with I54S, Q55H, D57T, E62Q, F64Y
VL: B1 VL with S56I, I94L, T97S
B22: AB200-(2Vk44)_R2-VH-v44 (Fab, V domains shown)
VH: B1 VH with S30T, Q55H, Y59N, N61A, E62Q, F105Y, D109E
VL: B1 VL with S56I, I94L, T97S
B23: AB200-(2Vk44)_R2-VH-v72 (Fab, V domains shown)
VH: B1 VH with N61A, E62Q, I101V, F105Y
VL: B1 VL with S56I, I94L, T97S
B24: AB200-(2Vk44)_R2-VH-v68 (Fab, V domains shown)
VH: B1 VH with Q55H, Y59N, N61A, E62Q, K74E
VL: B1 VL with S56I, I94L, T97S
B25: AB200-(2Vk44)_R2-VH-v14 (Fab, V domains shown)
VH: B1 VH with T28S, I54S, Q55H, D57T, I101V, F105Y
VL: B1 VL with S56I, I94L, T97S
B26: AB200-(2Vk44)_R2-VH-v24 (Fab, V domains shown)
VH: B1 VH with A50G, I54S, Q55H, Y102F, F105Y
VL: B1 VL with S56I, I94L, T97S
B27: AB200-(2Vk44)_R2-VH-v61 (Fab, V domains shown)
VH: B1 VH with A50G, Q55H, E62Q, F64Y, F105Y, D109E
VL: B1 VL with S56I, I94L, T97S
B28: AB200-(2Vk44)_R2-VH-v60 (Fab, V domains shown)
VH: B1 VH with A50G, E62Q, F105Y, D109E
VL: B1 VL with S56I, I94L, T97S
B29: AB200-(2Vk44)_R2-VH-v35 (Fab, V domains shown)
VH: B1 VH with I54S, Q55H, N61A, E62Q, F64Y, F105Y, D109E
VL: B1 VL with S56I, I94L, T97S
B30: AB200-(2Vk44)_R2-VH-v54 (Fab, V domains shown)
VH: B1 VH with T28S, Q55H, Y59N, F105Y, D109E
VL: B1 VL with S56I, I94L, T97S
B31: AB200-(2Vk44)_R2-VH-v7 (Fab, V domains shown)
VH: B1 VH with F29Y, I54S, Q55H, D57T, N61A, E62Q
VL: B1 VL with S56I, I94L, T97S
B32: AB200-(2Vk44)_R2-VH-v41 (Fab, V domains shown)
VH: B1 VH with S30T, A50G, Q55H
VL: B1 VL with S56I, I94L, T97S
B33: AB200-(2Vk44)_R2-VH-v1 (Fab, V domains shown)
VH: B1 VH with S30T, A50G, I54S, Q55H, E62Q, F64Y, F105Y, D109E
VL: B1 VL with S56I, I94L, T97S
B34: AB200-(2Vk44)_R2-VH-v64 (Fab, V domains shown)
VH: B1 VH with Q55H, D57T, N61A, E62Q
VL: B1 VL with S56I, I94L, T97S
B35: AB200-(2Vk44)_R2-VH-v70 (Fab, V domains shown)
VH: B1 VH with Q55H, Y59N, E62Q, F64Y, I101V, F105Y
VL: B1 VL with S56I, I94L, T97S
B36: AB200-(2Vk44)_R2-VH-v22 (Fab, V domains shown)
VH: B1 VH with A50G, I54S, E62Q, I101V, F105Y
VL: B1 VL with S56I, I94L, T97S
B37: AB200-(2Vk44)_R2-VH-v53 (Fab, V domains shown)
VH: B1 VH with T28S, Q55H, Y59N, E62Q, F64Y, Y102F, F105Y
VL: B1 VL with S56I, I94L, T97S

Molecular target: T3, extracellular domain of rhesus monkey BCMA (rhesus monkey, UniProt F7FFA0 1-53)
T3 construct: extracellular domain; also called RhBCMA
Test: Octet BLI; Fab 200 nM

T3 sequence (F7FFA0 entry or part of it): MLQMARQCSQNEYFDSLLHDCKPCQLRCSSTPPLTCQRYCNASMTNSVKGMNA

Binder	Kd [nM]
B1	8.46
B2	126
B3	14.8
B4	9.59
B5	25.7
B6	49
B7	52
B8	40.7
B9	43.1
B10	67.3
B11	9.56
B12	46.6
B13	44.7
B14	287

Molecular target: T1, extracellular domain of human BCMA
Test: Octet BLI; Fab 200 nM

Binder	Kd [nM]
B1	1.93
B2	63.2
B3	3.15
B4	1.89
B5	6.24
B6	14.5
B7	36.6
B8	20.9
B9	19.7
B10	29.1
B11	27.1
B12	16.2
B13	11.3
B14	103

Molecular target: T2, human BCMA on NCI-H929, OPM2 and Raji …
Test: flow cytometry, NCI-H929 cells

Binder	Kd [nM]
B15	1.3
B16	9.7
B17	9.66
B18	0.5
B19	0.333

Molecular target: T2, human BCMA on NCI-H929, OPM2 and Raji …
Test: cell-based or functional assay

Binder	GI50 (nM) OPM2.1, cell viability [nM]	LD50 (nM) OPM2.1, cell viability [nM]
B19	0.985	19.8

Molecular target: T2, human BCMA on NCI-H929, OPM2 and Raji …
Test: flow cytometry on NCI-H929 cells (BCMA high), fluorescent anti-human IgG1 secondary antibody, MFI against test article concentration

Binder	EC50 (read off the curve) [nM]
B16	~9
B17	~9
B18	~0.6

Molecular target: T3, extracellular domain of rhesus monkey …
Test: Octet BLI; Fab 200 nM
Remark: another data set of the same source

Binder	Kd [nM]
B20	52.6
B21	20.9
B22	290
B23	12.4
B24	110
B25	16.9
B26	20.8
B27	59.6
B28	38.6
B29	52.8
B30	151
B31	71.7
B32	12.6
B33	40
B34	36.5
B35	35.8
B36	11.1
B37	103

Molecular target: T1, extracellular domain of human BCMA
Test: Octet BLI; Fab 200 nM
Remark: another data set of the same source

Binder	Kd [nM]
B20	27.2
B21	10.9
B22	86.4
B23	2.16
B24	60.3
B25	7.55
B26	6.44
B27	19.2
B28	11.1
B29	16.2
B30	68.8
B31	40.6
B32	3.73
B33	11.8
B34	22.1
B35	12.4
B36	2.31
B37	52.5
